Among the data in patent publication US20220227846A1 (TEMPLE UNIVERSITY OF THE COMMONWEALTH SYSTEM OF HIGHER …, published 2022) are Kd values, retold here.

Holding throughout (assay): SPR, calculated KD (Qdat software)
Test [1] deals with T1, N-terminal biotinylated Aβ42 monomers (UniProt P05067 672-713, N-terminal biotin).
T1 construct: domain: Aβ42; also called NTB mono
The procedure:
(§1) MAb binding to Aβ42 conformers was measured by surface plasma resonance (SPR) (Table 1). Calculated affinity constants (KD) were obtained using Qdat software. […] The 3H3 binding data is qualitatively most similar to the 4G1 and 6E10 mAbs. 4A6 and 2C10 preferentially bind Aβ fibrils.

The target in test [2] is T2, Aβ42 oligomers (ADDLs/globulomers) (UniProt P05067 672-713).
T2 construct: domain: Aβ42; Oligomeric conformer of Aβ42; also called amyloid beta derived diffusible ligands
The method, then: as §1

The target of another test is T3, Aβ42 fibrils (UniProt P05067 672-713).
T3 construct: domain: Aβ42; Fibrillar conformer of Aβ42; also called Aβ fibrils
The method, then: as §1

Test [3] has as its target T4, C-terminal biotinylated Aβ42 ADDLs/globulomers (UniProt P05067 672-713, C-terminal biotin).
T4 construct: domain: Aβ42; also called CTB oligo
The method, then:
as §1

In test [4] the target is T5, C-terminal biotinylated Aβ42 monomers (UniProt P05067 672-713, C-terminal biotin).
T5 construct: domain: Aβ42; also called CTB mono
The method, then:
as §1

T3 sequence (P05067 672-713 limits assumed): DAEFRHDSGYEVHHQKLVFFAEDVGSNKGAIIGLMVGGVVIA
T2 sequence (P05067 672-713 limits assumed): as above
T5 sequence (P05067 672-713 limits assumed): as above
T4 sequence (P05067 672-713 limits assumed): as above
T1 sequence (P05067 672-713 limits assumed): as above

B1: ALZ.3H3 (antibody, V domains shown)
VH: QVQLVESGGGVVQPGRSLRLSCAASGFSFSTYGMHWVRQAPGKGLEWVAVISYDGSRKYYADTGKGRFTISRDNSKNTLYLEMNGLRAEDTAVYHCAKDLRRELGFGNRDYHYYGMDAWGQGTTVTVSS
VL: LTQPRSVSGSPGQSVTMSCTGTNSDIGGYNYVSWYQQHPGKAPKLMIYDVYKRPSGVPDRFSGSKSGNTASLTISGLQAEDEADYYCCSYAGTNNLIFGGGTKLTVLG
For the molecule B1, the dissociation constant (Kd) (as a rule, the free concentration of one partner at which half of the binding sites on the other are occupied at equilibrium, for simple one-to-one binding) in test [1] was 240 nM; in test [2] it was 40 nM; with Aβ42 fibrils it was 2.1 nM; in test [3], 35 nM; in test [4], 3.4 nM.

B2: ALZ.4G1 (antibody, V domains shown)
VH: EEHLVESGGALVQPGGSLRLSCEASGFTFRSYWMTWVRQAPGKGLEWLANIKQDGSDYYYVDSVKGRFTISRDNAKNTLYLQMNNLRADDTAVYFCARDARYRDTTWPQYYFYYFMDVWGKGTTVTVSS
VL: DIQLTQSPSSLSASIGDRVTVTCRASQSISNYLNWYQQKPGKAPKLLIYAASNLHTGVPSRFSGSGSGTHFTLTISSLQPEDFATYYCQLSYNNPRTFGPGTTVDIR
notes: Human mAb cloned from hybridomas made from B cells of a patient with Alzheimer's Disease
On to B2, for which the Kd in test [1] is 1700 nM; in test [2] it was 8.8 nM; in the test with Aβ42 fibrils it was 14 nM; in test [3], 11.4 nM; in test [4] it was 15 nM.

B3: ALZ.4A6 (antibody, V domains shown)
VH: QVQLVQSGAEVKKPGASMRVSCKASGYTYTAYYIHWMRQAPGQGLEWMGWINPHIGSTNYAEKFRGRVTLTRDTSIKTAYMDLDRLTSDDTAIYYCARVRAPRSISGTLNSYGMDVWGQGTTVAVSS
VL: DIVMTQSPSSLSASVGDRVVITCRASLRIGTFLNWYQQTQGRAPKLLVSSASTLQSGVPSRFSGSGSGTDFTLTINSLQPEDFATYYCQQSYSTTWTFGQGTKVELK
notes: as for B2
Regarding B3, the figures for the equilibrium dissociation constant (Kd) (in test [2]; in the test with Aβ42 fibrils; in test [4]) were 1300 nM, 11 nM and 16 nM, respectively.
